From the supplement of paper PMC10899765

System: MCF10A
Experiment: nucleolar rRNA biogenesis percent inhibition (5-EU; siNT 0%, siPOLR1A 100%); higher = stronger inhibition of nucleolar rRNA biogenesis
Conditions: 20 nM; 72 h
Experimental: (§1)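 Primary screen hits (microRNA mimics) were re-picked and rescreened for nucleolar number in MCF10A cells (hitpick validation; percent effect relative to the siNT and siNOL11/siKIF11 controls). A secondary screen measured nucleolar rRNA biogenesis inhibition: after 72 h of transfection at 20 nM, cells were labelled 1 h with 1 mM 5-EU and nucleolar 5-EU signal was quantified, normalised to siNT (0%) and siPOLR1A (100%). Means are over n=5 (MCF10A) or n=2 (RPE-1, HeLa) biological replicates.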

Sequence | nucleolar rRNA biogenesis percent inhibition
UGGAGUCCAGGAAUCUGCAUUUU [hsa-miR-1289] | 68.1%
GAGCAAUGUAGGUAGACUGUUU [hsa-miR-3908] | 7.34%
GAGGGCAUGCGCACUUUGUCC [hsa-miR-4761-3p] | 76%
UGGUCUGCAAAGAGAUGACUGU [hsa-miR-4527] | 67.3%
AAGGAGAUGCUCAGGCAGAU [hsa-miR-6888-5p] | 50.6%
AAAAGGCAUUGUGGUUUUUG [hsa-miR-548an] | 65.7%
CUGGCGGAGCCCAUUCCAUGCCA [hsa-miR-4730] | 91.1%
AAGCAGCUGCCUCUGAGGC [hsa-miR-646] | 130%
UGUGUGGAUCCUGGAGGAGGCA [hsa-miR-3911] | 53.8%
CACCAGGGCAGAGCAGGGCUGA [hsa-miR-6753-5p] | 91.2%
UCUCCCUUGAGGGCACUUU [hsa-miR-4287] | 82.1%
GGCUGGGUGCUCUUGUGCAGU [hsa-miR-5589-5p] | 70%
CGCGCCGGGCCCGGGUU [hsa-miR-3195] | 51.6%
UCUGCAGGGUUUGCUUUGAG [hsa-miR-1205] | 15.8%
CUCGGCGCGGGGCGCGGGCUCC [hsa-miR-1469] | 96.7%
UUUGGGACUGAUCUUGAUGUCU [hsa-miR-3913-5p] | 84.5%

Sequence | nucleolar rRNA biogenesis percent inhibition
UGAAUGGUAAAGCGAUGUCACA [hsa-miR-4790-3p] | 105%
CAAUGGCACAAACUCAUUCUUGA [hsa-miR-5197-5p] | 16.5%
CAGCCUCUGCCCUUGGCCUCC [hsa-miR-6877-3p] | 114%
ACUGGGCUUGGAGUCAGAAG [hsa-miR-378g] | 57.9%
GAGCAGGCGAGGCUGGGCUGAA [hsa-miR-4690-5p] | 101%
GGCGACAAAACGAGACCCUGUC [hsa-miR-1273c] | 31.6%
AGGAGCUAUCCACUCCAGGUGUCC [hsa-miR-6500-5p] | 61.3%
UUGCACUUGUCUCAGUGA [hsa-miR-4325] | 104%
GUGUGUGGAAAUGCUUCUGC [hsa-miR-147a] | 61.8%
CUCUCCUCCCGGCUUC [hsa-miR-4279] | 26.8%
UUCUCCCACUACCAGGCUCCCA [hsa-miR-4713-5p] | 82.4%
UCAUAGCCCUGUACAAUGCUGCU [hsa-miR-103b] | 47.6%
CUAGGGGGUUUGCCCUUG [hsa-miR-4278] | 45.6%
CCCCACCUCCUCUCUCCUCAG [hsa-miR-1224-3p] | 22.4%
GGCUCCUCCUCUCAGGAUGUG [hsa-miR-4268] | 133%
AGGUAUUGCCACCCUUUCUAGU [hsa-miR-5681b] | 66%

System: MCF10A
Experiment: one-nucleolus phenotype percent effect, hitpick validation (relative to siNT 0% and siNOL11 100%); higher = more cells with one nucleolus
Conditions: 20 nM; 72 h
Experimental: as §1

Sequence | one-nucleolus phenotype percent effect
UGGAGUCCAGGAAUCUGCAUUUU [hsa-miR-1289] | 130%
GAGCAAUGUAGGUAGACUGUUU [hsa-miR-3908] | 166%
GAGGGCAUGCGCACUUUGUCC [hsa-miR-4761-3p] | 86.5%
UGGUCUGCAAAGAGAUGACUGU [hsa-miR-4527] | 151%
AAGGAGAUGCUCAGGCAGAU [hsa-miR-6888-5p] | 173%
AAAAGGCAUUGUGGUUUUUG [hsa-miR-548an] | 194%
CUGGCGGAGCCCAUUCCAUGCCA [hsa-miR-4730] | 230%
AAGCAGCUGCCUCUGAGGC [hsa-miR-646] | 152%
UGUGUGGAUCCUGGAGGAGGCA [hsa-miR-3911] | 129%
CACCAGGGCAGAGCAGGGCUGA [hsa-miR-6753-5p] | 141%
UCUCCCUUGAGGGCACUUU [hsa-miR-4287] | -44.9%
GGCUGGGUGCUCUUGUGCAGU [hsa-miR-5589-5p] | 92.2%
CGCGCCGGGCCCGGGUU [hsa-miR-3195] | 196%
UCUGCAGGGUUUGCUUUGAG [hsa-miR-1205] | 166%
CUCGGCGCGGGGCGCGGGCUCC [hsa-miR-1469] | 158%
UUUGGGACUGAUCUUGAUGUCU [hsa-miR-3913-5p] | -50.6%

Sequence | one-nucleolus phenotype percent effect
UGAAUGGUAAAGCGAUGUCACA [hsa-miR-4790-3p] | 78.8%
CAAUGGCACAAACUCAUUCUUGA [hsa-miR-5197-5p] | 65.4%
CAGCCUCUGCCCUUGGCCUCC [hsa-miR-6877-3p] | 153%
ACUGGGCUUGGAGUCAGAAG [hsa-miR-378g] | 159%
GAGCAGGCGAGGCUGGGCUGAA [hsa-miR-4690-5p] | 176%
GGCGACAAAACGAGACCCUGUC [hsa-miR-1273c] | 205%
AGGAGCUAUCCACUCCAGGUGUCC [hsa-miR-6500-5p] | 153%
UUGCACUUGUCUCAGUGA [hsa-miR-4325] | 84.2%
GUGUGUGGAAAUGCUUCUGC [hsa-miR-147a] | 103%
CUCUCCUCCCGGCUUC [hsa-miR-4279] | 188%
UUCUCCCACUACCAGGCUCCCA [hsa-miR-4713-5p] | -22.9%
UCAUAGCCCUGUACAAUGCUGCU [hsa-miR-103b] | 144%
CUAGGGGGUUUGCCCUUG [hsa-miR-4278] | 151%
CCCCACCUCCUCUCUCCUCAG [hsa-miR-1224-3p] | -32.5%
GGCUCCUCCUCUCAGGAUGUG [hsa-miR-4268] | -21.2%
AGGUAUUGCCACCCUUUCUAGU [hsa-miR-5681b] | 133%

System: MCF10A
Experiment: 5+ nucleoli phenotype percent effect, hitpick validation (relative to siNT 0% and siKIF11 100%); higher = more cells with five or more nucleoli
Conditions: 20 nM; 72 h
Experimental: as §1

Sequence | 5+ nucleoli phenotype percent effect
UGGAGUCCAGGAAUCUGCAUUUU [hsa-miR-1289] | -9.57%
GAGCAAUGUAGGUAGACUGUUU [hsa-miR-3908] | -5.96%
GAGGGCAUGCGCACUUUGUCC [hsa-miR-4761-3p] | 14.2%
UGGUCUGCAAAGAGAUGACUGU [hsa-miR-4527] | -1.79%
AAGGAGAUGCUCAGGCAGAU [hsa-miR-6888-5p] | -11.7%
